Where no end group is shown, it is not given here.
How the values were obtained:
ERH-2 [1] = type: binding, C. elegans
ERH-1 [2] = target: T1, ERH-1 (Caenorhabditis elegans, UniProt Q22640); assay: Isothermal titration calorimetry, binding to ERH-1; design: species or system C. elegans
T1 sequence (Q22640 1-103): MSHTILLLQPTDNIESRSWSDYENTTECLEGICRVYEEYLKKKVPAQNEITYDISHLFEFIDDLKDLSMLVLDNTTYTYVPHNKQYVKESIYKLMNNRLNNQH

ERH-2:PID-3^pep 1:2 = target: T2, ERH-2:PID-3^pep 1:2 (Caenorhabditis elegans, UniProt O76616+Q20057); assay: Isothermal titration calorimetry, binding to ERH-2:PID-3^pep 1:2; design: species or system C. elegans
T2 sequence (Q20057 1-113): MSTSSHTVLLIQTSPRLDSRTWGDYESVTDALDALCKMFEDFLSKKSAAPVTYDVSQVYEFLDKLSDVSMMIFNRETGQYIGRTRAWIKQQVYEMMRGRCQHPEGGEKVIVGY
T2 sequence (O76616 171-203 partner limits assumed): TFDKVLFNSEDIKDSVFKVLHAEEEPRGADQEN

ERH-2 [3] = target: T3, ERH-2 (Caenorhabditis elegans, UniProt Q20057); assay: NMR-monitored titration of 15N-labeled ERH-2; type: binding, C. elegans; details: 1H-15N HSQC titration, 25°C, NMR buffer pH 7.50, ERH-2 ~200 μM
T3 sequence (Q20057 1-113): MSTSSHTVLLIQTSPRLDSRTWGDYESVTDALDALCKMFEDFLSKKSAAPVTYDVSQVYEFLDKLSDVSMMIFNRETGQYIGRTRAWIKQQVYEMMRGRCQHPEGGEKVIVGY

ERH-2 [4] = target: T3, ERH-2; assay: Isothermal titration calorimetry, binding to ERH-2; design: species or system C. elegans
ERH-2 [5] = assay: Streptavidin pull-down, TOST-1/PID-1 mVenus-Strep bait with ERH-2; type: binding, C. elegans; details: TOST-1 or PID-1 mVenus-Strep bait 10-20 μM, prey 1.2-fold molar excess, 4°C
ERH-1 [6] = target: T1, ERH-1; assay: Streptavidin pull-down, TOST-1/PID-1 mVenus-Strep bait with ERH-1; type: binding, C. elegans; details: TOST-1 or PID-1 mVenus-Strep bait 10-20 μM, prey 1.2-fold molar excess, 4°C
TOFU-6^RRM = target: T4, TOFU-6^RRM (C. elegans, UniProt Q09293 1-99); assay: SEC
T4 sequence (looked up): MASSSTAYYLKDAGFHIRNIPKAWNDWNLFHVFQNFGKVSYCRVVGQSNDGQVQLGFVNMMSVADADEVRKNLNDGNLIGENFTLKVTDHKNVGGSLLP

[7] = SEC-MALS, molecular mass and oligomeric state; type: physicochemical, C. elegans; details: for average molecular mass: 2-5 mg/mL, 20 mM Tris/HCl pH 7.5, 150 mM NaCl, 2 mM DTT
SEC-MALS = target: the molecule itself; assay: SEC-MALS
TOST-1-mVenus-Strep = target: T5, TOST-1-mVenus-Strep (C. elegans, UniProt Q18490 1-142); assay: pull-down
T5 sequence (looked up): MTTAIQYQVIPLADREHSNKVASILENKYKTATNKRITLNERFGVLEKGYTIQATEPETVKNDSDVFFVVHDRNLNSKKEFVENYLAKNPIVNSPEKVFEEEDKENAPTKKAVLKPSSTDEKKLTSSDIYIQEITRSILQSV

PID-3/TOFU-6 interaction = type: binding, C. elegans
[8] = target: Cy5-labeled 16-mer oligo(U) RNA; assay: Fluorescence anisotropy RNA binding, Cy5-U16; details: 100 nM Cy5-U16 RNA, 10 mM Tris/HCl pH 7.5, 50 mM KCl, 0.5 mM EDTA, ≥2 h at 15°C, single binding site model, n = 3 technical replicates
TOST-1 = assay: Streptavidin pull-down of ERH-2 variants with TOST-1-mVenus-Strep; type: binding, C. elegans; details: ERH-2 variants as prey, TOST-1-mVenus-Strep as bait
full-length ERH-2^FL = target: T6, full-length ERH-2^FL (C. elegans, UniProt Q20057 1-113); assay: ITC
T6 sequence (looked up): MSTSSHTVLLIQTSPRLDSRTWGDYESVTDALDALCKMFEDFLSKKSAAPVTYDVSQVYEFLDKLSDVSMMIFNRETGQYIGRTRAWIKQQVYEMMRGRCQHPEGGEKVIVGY

## GST-PID-3^pep: GST-tagged PID-3 peptide (residues 171–203) (TFDKVLFNSEDIKDSVFKVLHAEEEPRGADQEN; also: N-terminal His6 and GST tags, order not given here)
ERH-2 [1]
  binding to ERH-2 in GST pull-down: ERH-2 could indeed bind to GST-PID-3^pep

## KYKTATNKRITLNERFGVLEKGYTIQ [TOST-1^pep]
ERH-1 [2]
  Kd: 10 ± 2 µM
ERH-2:PID-3^pep 1:2
  Kd: 4 ± 2 µM
ERH-2 [3]
  dissociation constant range from NMR exchange regime: micromolar range

## NYNTNLHRKVTLSDRFELAALGYEMKAK [PID-1^pep]
ERH-2 [4]
  Kd: 24 ± 3 µM
ERH-1 [2]
  Kd: 73 ± 11 µM
ERH-2 [3]
  dissociation constant range from NMR exchange regime: micromolar range

## PID-1: full-length PID-1, C-terminally tagged with monomeric Venus StrepII tag (NYNTNLHRKVTLSDRFELAALGYEMKAK)
ERH-2 [5]
  binding to ERH-2 in streptavidin pull-down: Both PID-1 and TOST-1 bound ERH-2
ERH-1 [6]
  binding to ERH-1 in streptavidin pull-down: interacted with ERH-1

B1: PID-3^RRM (domain or fragment, C. elegans, UniProt O76616 196-274, looked up)
chain: PRGADQENMLKISGYPGMLNTFGIAQLLTPYRVNGITITGAQSAVVALENKFQVYQAVQDFNGKKLDRNHKLQVSSLVV
TOFU-6^RRM
  binding result: binds

B2: PID-3^RRM F247E/Q251R (protein)
chain: PRGADQENMLKISGYPGMLNTFGIAQLLTPYRVNGITITGAQSAVVALENKEQVYRAVQDFNGKKLDRNHKLQVSSLVV
modifications: left off: His6, N-terminal, kept | GST, N-terminal, kept
[7]
  oligomeric state: homodimeric

B3: PID-3^RRM F247E/Q251R (purified) (domain or fragment, C. elegans, UniProt O76616 196-274, looked up)
chain: PRGADQENMLKISGYPGMLNTFGIAQLLTPYRVNGITITGAQSAVVALENKEQVYRAVQDFNGKKLDRNHKLQVSSLVV
SEC-MALS
  stoichiometry N: 2

B4: PID-3^RRM A220E (protein)
chain: PRGADQENMLKISGYPGMLNTFGIEQLLTPYRVNGITITGAQSAVVALENKFQVYQAVQDFNGKKLDRNHKLQVSSLVV
modifications: left off: His6, N-terminal, kept | GST, N-terminal, kept
[7]
  oligomeric state: monomeric

B5: ERH-1 (natural protein, C. elegans, UniProt Q22640 1-103, looked up)
chain: MSHTILLLQPTDNIESRSWSDYENTTECLEGICRVYEEYLKKKVPAQNEITYDISHLFEFIDDLKDLSMLVLDNTTYTYVPHNKQYVKESIYKLMNNRLNNQH
TOST-1-mVenus-Strep
  binding result: binds

B6: TOFU-6^RRM: TOFU-6 RRM domain, residues 1–99 (protein)
chain: MASSSTAYYLKDAGFHIRNIPKAWNDWNLFHVFQNFGKVSYCRVVGQSNDGQVQLGFVNMMSVADADEVRKNLNDGNLIGENFTLKVTDHKNVGGSLLP
modifications: left off: His10, N-terminal, state not stated | MBP, N-terminal, state not stated
PID-3/TOFU-6 interaction
  PID-3/TOFU-6 interaction in pull-down: the RRM domains of PID-3 and TOFU-6 mediate the interaction between the two proteins
[8]
  Kd: ~60 µM

B7: ERH-2 T13E (purified) (natural protein, C. elegans, UniProt Q20057 1-113, looked up)
chain: MSTSSHTVLLIQESPRLDSRTWGDYESVTDALDALCKMFEDFLSKKSAAPVTYDVSQVYEFLDKLSDVSMMIFNRETGQYIGRTRAWIKQQVYEMMRGRCQHPEGGEKVIVGY
TOST-1-mVenus-Strep
  binding result: binds

B8: PID-3/ERH-2: PID-3/ERH-2 subcomplex (protein, UniProt O76616 1-307; Q20057 1-113, looked up)
Protein pid-3: MVAHQKADFKSKWAMVVTVNNLNDKKRADLREFSEWFIETLRLEGAFIGHYFNYEAAPVTIVETLPGNFDSCTNAYQKIHKEHPQVVLVVHILPQSQSNEYEWMKVLASRYGFVRQGLLYDNCANRFQNVETDQNSVFRNMCQWIYRSGTAIVRNEGNACGILHGKDPKPTFDKVLFNSEDIKDSVFKVLHAEEEPRGADQENMLKISGYPGMLNTFGIAQLLTPYRVNGITITGAQSAVVALENKFQVYQAVQDFNGKKLDRNHKLQVSSLVVSSPAVPLEWPSLKKSKKLVEQVGKPIRLSKVSS
Enhancer of rudimentary …: MSTSSHTVLLIQTSPRLDSRTWGDYESVTDALDALCKMFEDFLSKKSAAPVTYDVSQVYEFLDKLSDVSMMIFNRETGQYIGRTRAWIKQQVYEMMRGRCQHPEGGEKVIVGY
[7]
  average molecular mass: 92 kDa

B9: ERH-2: full-length C. elegans ERH-2 (protein, UniProt Q20057 1-113, looked up)
chain: MSTSSHTVLLIQTSPRLDSRTWGDYESVTDALDALCKMFEDFLSKKSAAPVTYDVSQVYEFLDKLSDVSMMIFNRETGQYIGRTRAWIKQQVYEMMRGRCQHPEGGEKVIVGY
modifications: full-length
[7]
  oligomeric state: homodimers
  average molecular mass: 27 kDa

B10: W87A (protein)
chain: MSTSSHTVLLIQTSPRLDSRTWGDYESVTDALDALCKMFEDFLSKKSAAPVTYDVSQVYEFLDKLSDVSMMIFNRETGQYIGRTRAAIKQQVYEMMRGRCQHPEGGEKVIVGY
modifications: left off: His6, N-terminal, state not stated | Trx, N-terminal, state not stated
TOST-1
  binding to TOST-1 in streptavidin pull-down: weaker interaction with TOST-1

B11: I81A/R83A (protein)
chain: MSTSSHTVLLIQTSPRLDSRTWGDYESVTDALDALCKMFEDFLSKKSAAPVTYDVSQVYEFLDKLSDVSMMIFNRETGQYAGATRAWIKQQVYEMMRGRCQHPEGGEKVIVGY
modifications: left off: His6, N-terminal, state not stated | Trx, N-terminal, state not stated
TOST-1
  binding to TOST-1 in streptavidin pull-down: weaker interaction with TOST-1

## TFDKVLFNSEDIKDSVFKVLHAEEEPRGADQEN (peptide, UniProt O76616 171-203, looked up) [PID-3^pep]
full-length ERH-2^FL
  stoichiometry N: 0.97

## KYKTATNKRITLNERFGVLEKGYTIQ (peptide, UniProt Q18490 28-53, looked up) [TOST-1^pep]
full-length ERH-2^FL
  Kd: 13 µM

B12: I182E and S185E: GST-tagged PID-3 mutant(s), Ile182 and Ser185 to glutamate (conjugate, UniProt O76616 1-307, looked up, variant I182E S185E)
Protein pid-3: MVAHQKADFKSKWAMVVTVNNLNDKKRADLREFSEWFIETLRLEGAFIGHYFNYEAAPVTIVETLPGNFDSCTNAYQKIHKEHPQVVLVVHILPQSQSNEYEWMKVLASRYGFVRQGLLYDNCANRFQNVETDQNSVFRNMCQWIYRSGTAIVRNEGNACGILHGKDPKPTFDKVLFNSEDEKDEVFKVLHAEEEPRGADQENMLKISGYPGMLNTFGIAQLLTPYRVNGITITGAQSAVVALENKFQVYQAVQDFNGKKLDRNHKLQVSSLVVSSPAVPLEWPSLKKSKKLVEQVGKPIRLSKVSS
modifications: GST tag
ERH-2 [1]
  binding to ERH-2 in GST pull-down: completely abrogated binding of PID-3^pep to ERH-2

B13: I182A and V186A: GST-tagged PID-3 mutant(s), Ile182 and Val186 to alanine (conjugate, UniProt O76616 1-307, looked up, variant I182A V186A)
Protein pid-3: MVAHQKADFKSKWAMVVTVNNLNDKKRADLREFSEWFIETLRLEGAFIGHYFNYEAAPVTIVETLPGNFDSCTNAYQKIHKEHPQVVLVVHILPQSQSNEYEWMKVLASRYGFVRQGLLYDNCANRFQNVETDQNSVFRNMCQWIYRSGTAIVRNEGNACGILHGKDPKPTFDKVLFNSEDAKDSAFKVLHAEEEPRGADQENMLKISGYPGMLNTFGIAQLLTPYRVNGITITGAQSAVVALENKFQVYQAVQDFNGKKLDRNHKLQVSSLVVSSPAVPLEWPSLKKSKKLVEQVGKPIRLSKVSS
modifications: GST tag
ERH-2 [1]
  binding to ERH-2 in GST pull-down: sufficient to abolish binding

Reference: article PMC8415317 (Genes & Development, 2021)
